Experimental data published in PMC11376383, “Transcription factor ZmEREB97 regulates nitrate uptake in maize (Zea mays) roots”.

B1: ZmNRT2.1 promoter probe (dsDNA)
DNA 1: CCAGCAGCAGCAGCCGACTAAACGGCATAGA
DNA 2: TCTATGCCGTTTAGTCGGCTGCTGCTGCTGG
B2: ZmNRT1.1B promoter probe (dsDNA)
DNA 1: AACAGGAGCACCCGCCGCCATGCTGCTCGCT
DNA 2: AGCGAGCAGCATGGCGGCGGGTGCTCCTGTT
B3: ZmNRT3.1A promoter probe (dsDNA)
DNA 1: CACCAGCACCGGCGCCGCCATTCGCCCCCTG
DNA 2: CAGGGGGCGAATGGCGGCGCCGGTGCTGGTG
B4: Motif 1 probe (WT) (dsDNA)
DNA 1: CTCGGTCCACGCCGCCCGTCGGGGTTCG
DNA 2: CGAACCCCGACGGGCGGCGTGGACCGAG
B5: ZmNRT2.5 promoter probe (dsDNA)
DNA 1: GCCGCGCCCGCTGCCGCCTCCCAGCTCGCT
DNA 2: AGCGAGCTGGGAGGCGGCAGCGGGCGCGGC
B6: ZmNRT1.2 promoter probe (dsDNA)
DNA 1: CCACCGCACTGTCGCCGCCGTGCAGGCTCCA
DNA 2: TGGAGCCTGCACGGCGGCGACAGTGCGGTGG
B7: ZmNRT1.1A promoter probe (dsDNA)
DNA 1: ATATATAGCGGGGCGCCGCCCACCCGGCGGAGC
DNA 2: GCTCCGCCGGGTGGGCGGCGCCCCGCTATATAT

Legend:
ZmEREB97 [1] = biological target: T1, ZmEREB97 (Zea mays (B73_v3 gene model; cDNA …, UniProt C4J4G2 1-222); experiment: EMSA; partially competed by 50-fold cold probe; EMSA/Gel Shift Binding Buffer (Beyotime; composition, salt and pH not stated), 25 C, 20 min, about 80 ng protein, 2.5 ng probe; conditions: protein: recombinant; tags: 6xHis (pCold); label: 5'-biotin
T1 sequence (C4J4G2 entry or part of it): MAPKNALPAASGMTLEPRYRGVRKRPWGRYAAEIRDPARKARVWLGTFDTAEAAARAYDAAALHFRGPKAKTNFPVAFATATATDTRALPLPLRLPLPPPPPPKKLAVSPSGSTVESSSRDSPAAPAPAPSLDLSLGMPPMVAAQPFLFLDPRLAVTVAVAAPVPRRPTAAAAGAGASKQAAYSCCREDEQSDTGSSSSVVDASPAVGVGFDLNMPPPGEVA

ZmEREB97 [2] = biological target: T1, ZmEREB97; experiment: EMSA; EMSA/Gel Shift Binding Buffer (Beyotime; composition, salt and pH not stated), 25 C, 20 min, about 80 ng protein, 2.5 ng probe; conditions: protein: recombinant; tags: 6xHis (pCold); label: 5'-biotin

Binder	binding result (ZmEREB97 [1])	binding result (ZmEREB97 [2])
B1	binds	
B2	binds	
B3	binds	
B4		binds
B5	binds	
B6	binds	
B7	binds	
